Among the data in PMC12319226 (Frontiers in Bioinformatics, 2025) are Kd, koff and kon values, retold here.

Test in all cases: BLI
Holding throughout (conditions): both partners purified

In assay [1] the target is T1, factor H binding protein variant 3.28 (Neisseria meningitidis, fHbp variant …).
T1 construct: also called fHbp v3.28; v3.28 Control (0002)
T1 chain: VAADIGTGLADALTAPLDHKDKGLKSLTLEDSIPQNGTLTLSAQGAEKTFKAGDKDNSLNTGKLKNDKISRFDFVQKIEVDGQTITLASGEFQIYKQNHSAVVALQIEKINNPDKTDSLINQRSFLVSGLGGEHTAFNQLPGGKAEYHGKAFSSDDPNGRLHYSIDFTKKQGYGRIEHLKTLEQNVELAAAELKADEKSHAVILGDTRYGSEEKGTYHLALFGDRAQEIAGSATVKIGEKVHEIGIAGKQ

Another assay addresses T2, fHbp m001820 (Neisseria meningitidis fHbp v3.28, …, point mutant).
T2 chain: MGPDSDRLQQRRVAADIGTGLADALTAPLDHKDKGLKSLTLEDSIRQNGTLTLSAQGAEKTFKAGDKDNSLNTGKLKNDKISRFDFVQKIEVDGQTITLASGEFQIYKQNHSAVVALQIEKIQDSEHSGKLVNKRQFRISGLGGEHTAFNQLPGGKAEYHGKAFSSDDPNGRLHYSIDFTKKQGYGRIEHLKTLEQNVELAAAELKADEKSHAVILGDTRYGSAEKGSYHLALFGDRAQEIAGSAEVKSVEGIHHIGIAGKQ

The target in another assay is T3, fHbp m001608 (Neisseria meningitidis, fHbp …, point mutant).
T3 chain: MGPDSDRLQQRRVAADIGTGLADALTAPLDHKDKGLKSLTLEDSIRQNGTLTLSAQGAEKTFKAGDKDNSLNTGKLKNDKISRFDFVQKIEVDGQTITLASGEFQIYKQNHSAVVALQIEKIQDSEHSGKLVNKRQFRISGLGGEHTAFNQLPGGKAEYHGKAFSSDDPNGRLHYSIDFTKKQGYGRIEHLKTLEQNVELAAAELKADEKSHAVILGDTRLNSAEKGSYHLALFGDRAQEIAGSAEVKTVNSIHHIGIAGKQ

The target in a further assay is T4, fHbp m001213 (Neisseria meningitidis fHbp v3.28-based …, point mutant).
T4 chain: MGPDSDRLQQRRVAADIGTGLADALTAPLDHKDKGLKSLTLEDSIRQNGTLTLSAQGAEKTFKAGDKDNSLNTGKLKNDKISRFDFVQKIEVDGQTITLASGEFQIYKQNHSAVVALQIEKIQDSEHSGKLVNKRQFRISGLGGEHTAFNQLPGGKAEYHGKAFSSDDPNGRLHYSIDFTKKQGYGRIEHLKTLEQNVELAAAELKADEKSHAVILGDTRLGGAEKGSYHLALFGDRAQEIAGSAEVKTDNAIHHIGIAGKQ

For another assay, the target named is T5, fHbp m001207 (Neisseria meningitidis fHbp v3.28-based …, point mutant).
T5 chain: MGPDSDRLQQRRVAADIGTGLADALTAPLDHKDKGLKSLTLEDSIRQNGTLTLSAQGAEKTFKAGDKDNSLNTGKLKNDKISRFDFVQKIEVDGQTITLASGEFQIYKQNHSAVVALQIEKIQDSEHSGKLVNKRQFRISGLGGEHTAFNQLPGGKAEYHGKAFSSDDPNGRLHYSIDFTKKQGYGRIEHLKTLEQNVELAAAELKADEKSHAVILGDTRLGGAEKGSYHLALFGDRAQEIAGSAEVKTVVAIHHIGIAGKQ

Another assay concerns the target T6, fHbp m002334 (Neisseria meningitidis, engineered fHbp …, chimera).
T6 chain: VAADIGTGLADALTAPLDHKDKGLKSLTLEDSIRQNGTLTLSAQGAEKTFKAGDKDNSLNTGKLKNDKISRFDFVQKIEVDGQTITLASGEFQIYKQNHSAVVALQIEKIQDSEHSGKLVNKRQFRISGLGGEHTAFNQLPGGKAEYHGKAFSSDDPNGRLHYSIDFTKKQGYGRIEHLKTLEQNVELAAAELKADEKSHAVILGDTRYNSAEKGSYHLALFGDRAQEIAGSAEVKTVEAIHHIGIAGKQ

The target in another assay is T7, fHbp m001529 (Neisseria meningitidis, fHbp …, point mutant).
T7 chain: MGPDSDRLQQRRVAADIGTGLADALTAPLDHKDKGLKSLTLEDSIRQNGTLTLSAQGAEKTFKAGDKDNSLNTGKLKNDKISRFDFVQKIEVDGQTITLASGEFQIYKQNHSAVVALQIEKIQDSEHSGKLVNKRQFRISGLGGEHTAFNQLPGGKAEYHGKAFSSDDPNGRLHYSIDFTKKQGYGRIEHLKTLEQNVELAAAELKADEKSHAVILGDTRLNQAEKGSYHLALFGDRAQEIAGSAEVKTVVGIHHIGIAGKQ

For the next assay, the target named is T8, fHbp m001941 (Neisseria meningitidis fHbp v3.28, …, chimera).
T8 chain: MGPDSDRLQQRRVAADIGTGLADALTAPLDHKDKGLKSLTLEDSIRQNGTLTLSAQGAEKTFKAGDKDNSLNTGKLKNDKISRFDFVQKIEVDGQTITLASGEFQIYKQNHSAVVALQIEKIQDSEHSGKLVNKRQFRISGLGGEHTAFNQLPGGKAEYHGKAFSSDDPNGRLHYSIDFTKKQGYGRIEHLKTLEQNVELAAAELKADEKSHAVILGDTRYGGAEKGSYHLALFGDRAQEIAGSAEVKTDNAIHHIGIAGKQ

B1: mAb 1E6 (human) (antibody, V domains shown)
VH: EVQLVQSGAEVKKPGSSVKVSCKASGGTVIDYPITWVRQAPGQGLEWVGGFVPLFRTSNYGQKFQGRVTITADKSTSTASMELNSLTSEDTAIYYCARGDTAMGPFDYWGQGTLVTVSS
VL: SYVLTQPPSLSVAPGKTATLTCGGNNIAGKTVHWYQQRPGQAPVLVISYDSDRPSGIPERFSGSNSANTATLTISRVEAGDEADYYCQVWDRNSDHWVFGGGTKLTVL
notes: source: Expi293, purified (MabSelect SuRe, SEC); copies: 2 + 2
What is called Kd is the concentration at which binding is half-saturated. Read a low Kd as tighter binding. Usually koff stands for a measure of how fast the partners let go of each other. A word on the kon: it is a measure of how fast the partners come together. A lower kon goes with slow association. Turning to B1, the Kd was determined as 0.77 nM in assay [1]; 0.531 nM in the assay with fHbp m001820; 0.154 nM with fHbp m001608; 0.594 nM in the assay with fHbp m001213; 0.336 nM with fHbp m001207; 0.844 nM with fHbp m002334. The results for the dissociation constant (Kd) in the assay with fHbp m001529 and with fHbp m001941 were 0.338 nM and 0.464 nM, respectively. The koff is 0.000387 s⁻¹ in assay [1]; 0.000171 s⁻¹ in the assay with fHbp m001820; 8.28e-05 s⁻¹ with fHbp m001608; 0.000262 s⁻¹ with fHbp m001213; 0.000155 s⁻¹ with fHbp m001207; 0.000101 s⁻¹ with fHbp m002334. Further, the koff with fHbp m001529 worked out at 0.000156 s⁻¹; in the assay with fHbp m001941, 0.00015 s⁻¹. Also, the kon in assay [1] was determined as 501900 ± 2080 M⁻¹ s⁻¹; with fHbp m001820, 322300 ± 1430 M⁻¹ s⁻¹; with fHbp m001608, 537900 ± 1940 M⁻¹ s⁻¹; in the assay with fHbp m001213 it was 440700 ± 1810 M⁻¹ s⁻¹; with fHbp m001207, 459700 ± 4080 M⁻¹ s⁻¹; with fHbp m002334, 119300 ± 930 M⁻¹ s⁻¹. Further, the on-rate (kon) with fHbp m001529 worked out at 460900 ± 3880 M⁻¹ s⁻¹; with fHbp m001941, 323000 ± 2300 M⁻¹ s⁻¹.

B2: chimeric antibody h12C1 (antibody, V domains shown)
VH: QVQLQESGPELVKPGASVKISCKASGYSFSDYNMSWVKQSNGKSLEWIGIIDPKYGTINYNQKFKGKATLTVDQASSTAYMQLNSLTSEDSAVYYCVRDYYGSSYFDYWGQGTTLTVSS
VL: DIVLTQSPSSIYASLGERVTLTCKASQDIHNYLNWFQQKPGKSPKTLIYRANRLVDGVPSRFSGGGSGQDYSLTISSLEFEDIGIYYCLQYDEFPPTFGGGTRLEIK
notes: also called humanized 12C1; source: Expi293, purified (MabSelect SuRe, SEC); copies: 2 + 2
As to B2, in the assay with fHbp m001207, binding was characterised by a dissociation constant (Kd) of 80.8 nM, the koff worked out at 0.014 s⁻¹ and the kon stood at 174000 ± 4810 M⁻¹ s⁻¹.
